The values that follow come from US20220177596A1 (Bristol-Myers Squibb, published 2022).

To fix the notation:
B1: Y1238 (antibody, V domains shown)
VH: QVQLQQSGAELVRPGTSVKVSCKASGYAFTNYLIEWVKQRPGQGLEWIGVINPGSGGTNYNEKFKGKATLTADKSSSTAYMQLSSLTSDDSAVYFCARSQLGRRFDYWGQGTTLTVSS
VL: DIVMTQSHKFMSTSVGDRVSITCKASQDVRTGVAWYQQKPGQSPKLLIYSASYRNTGVPDRFTGSRSGTDFTFTISSVQAEDLAVYYCQQHYSPPYTFGGGTKLEIK
B2: Y1238-hz2-N297A (antibody, human IgG1, kappa, N297A)
heavy: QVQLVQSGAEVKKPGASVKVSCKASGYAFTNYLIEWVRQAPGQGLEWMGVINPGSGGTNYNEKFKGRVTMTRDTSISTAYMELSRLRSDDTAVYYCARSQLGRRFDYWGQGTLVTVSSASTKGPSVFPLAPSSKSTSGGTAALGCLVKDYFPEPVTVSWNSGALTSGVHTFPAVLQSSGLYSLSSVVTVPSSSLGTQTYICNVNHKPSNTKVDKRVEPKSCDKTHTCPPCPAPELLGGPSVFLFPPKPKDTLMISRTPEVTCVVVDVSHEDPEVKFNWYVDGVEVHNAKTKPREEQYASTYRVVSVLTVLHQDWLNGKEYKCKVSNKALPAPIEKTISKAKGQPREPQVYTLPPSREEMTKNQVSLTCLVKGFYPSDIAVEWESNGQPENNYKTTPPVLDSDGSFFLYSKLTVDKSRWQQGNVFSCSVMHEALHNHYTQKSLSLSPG
light: DIQMTQSPSSLSASVGDRVTITCKASQDVRTGVAWYQQKPGKAPKLLIYSASYRNTGVPSRFSGSRSGTDFTFTISSLQPEDIATYYCQQHYSPPYTFGGGTKVEIKRTVAAPSVFIFPPSDEQLKSGTASVVCLLNNFYPREAKVQWKVDNALQSGNSQESVTEQDSKDSTYSLSSTLTLSKADYEKHKVYACEVTHQGLSSPVTKSFNRGEC
notes: Humanized Y1238
B3: Y1238-hz2-P238K (antibody, human IgG1, kappa)
heavy: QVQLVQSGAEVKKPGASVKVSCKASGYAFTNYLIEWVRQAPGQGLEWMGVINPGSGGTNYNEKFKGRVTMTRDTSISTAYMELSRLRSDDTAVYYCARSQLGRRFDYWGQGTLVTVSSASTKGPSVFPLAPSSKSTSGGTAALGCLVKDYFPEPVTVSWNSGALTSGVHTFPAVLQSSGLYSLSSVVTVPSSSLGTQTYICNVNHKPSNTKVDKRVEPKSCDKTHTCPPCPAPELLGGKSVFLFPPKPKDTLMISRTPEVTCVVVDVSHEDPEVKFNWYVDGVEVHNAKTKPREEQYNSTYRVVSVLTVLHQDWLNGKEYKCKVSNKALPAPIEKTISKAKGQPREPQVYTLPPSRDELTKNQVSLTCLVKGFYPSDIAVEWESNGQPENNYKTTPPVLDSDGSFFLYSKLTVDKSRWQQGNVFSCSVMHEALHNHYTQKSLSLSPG
light: B2 light
notes: Humanized Y1238
B4: BI-mAb-B (antibody, human IgG1, kappa, L234A L235A, V domains shown)
VH: EVQLVESGGGLVKPGGSLRLSCAASGFTFSDYGMHWVRQAPGKGLEWVAYISSGNRIIYYADTVKGRFTISRDNAKNSLYLQMNSLRAEDTAVYYCARQDGYRYAMDYWGQGTLVTVSS
VL: DIVMTQSPDSLAVSLGEKVTINCKSSQSLLNSGNQKNYLTWHQQKPGQPPKLLIYWTSTRESGVPDRFSGSGSGTDFTLTISSLQAEDVAVYYCQNDYTYPLTFGGGTKVEIKR
notes: Comparator anti-CD40 antibody; also called Antibody B (U.S. Pat. No. 9,090,696)
B5: Y1238-IgG1.3f (antibody)
heavy: QVQLQQSGAELVRPGTSVKVSCKASGYAFTNYLIEWVKQRPGQGLEWIGVINPGSGGTNYNEKFKGKATLTADKSSSTAYMQLSSLTSDDSAVYFCARSQLGRRFDYWGQGTTLTVSSASTKGPSVFPLAPSSKSTSGGTAALGCLVKDYFPEPVTVSWNSGALTSGVHTFPAVLQSSGLYSLSSVVTVPSSSLGTQTYICNVNHKPSNTKVDKRVEPKSCDKTHTCPPCPAPEAEGAPSVFLFPPKPKDTLMISRTPEVTCVVVDVSHEDPEVKFNWYVDGVEVHNAKTKPREEQYNSTYRVVSVLTVLHQDWLNGKEYKCKVSNKALPAPIEKTISKAKGQPREPQVYTLPPSREEMTKNQVSLTCLVKGFYPSDIAVEWESNGQPENNYKTTPPVLDSDGSFFLYSKLTVDKSRWQQGNVFSCSVMHEALHNHYTQKSLSLSPGK
light: DIVMTQSHKFMSTSVGDRVSITCKASQDVRTGVAWYQQKPGQSPKLLIYSASYRNTGVPDRFTGSRSGTDFTFTISSVQAEDLAVYYCQQHYSPPYTFGGGTKLEIKRTVAAPSVFIFPPSDEQLKSGTASVVCLLNNFYPREAKVQWKVDNALQSGNSQESVTEQDSKDSTYSLSSTLTLSKADYEKHKVYACEVTHQGLSSPVTKSFNRGEC
notes: Chimeric mouse/human anti-human CD40; also called Y1238-hIgG1.3f; chimeric Y1238 IgG1.3f
B6: humanized Y1238 hz1 (hz-HC1 / hz-LC1), IgG1.3f (antibody, V domains shown)
VH: QVQLVQSGAEVKKPGASVKVSCKASGYAFTNYLIEWVRQAPGQGLEWMGVINPGSGGTNYNEKFKGRVTMTRDTSISTAYMELSRLRSDDTAVYYCARSQLGRRFDYWGQGTLVTVSS
VL: DIQMTQSPSSLSASVGDRVTITCKASQDVRTGVAWYQQKPGKAPKLLIYSASYRNTGVPSRFSGSGSGTDFTFTISSLQPEDIATYYCQQHYSPPYTFGGGTKVEIK
notes: IgG1.3f heavy constant, common CL; expression supernatant; also called Sup 1
B7: chimeric Y1238 supernatant (Sup 56; HC-Chim / LC-Chim) (antibody)
VH: B1 VH
light: B5 light
notes: Tested as expression supernatant
B8: purified Y1238-chimeric IgG1 antibody (antibody)
VH: B1 VH
light: B5 light
notes: Called IgG1; also called Y1238-IgG1; chimeric, purified
B9: humanized Y1238 hz54 (hz-HC11 / hz-LC4), IgG1.3f (antibody, V domains shown)
VH: B6 VH with A40R, T74K, I76S, Y95F
VL: B6 VL with K42Q, A43S, G66R, P80A, T85V
notes: IgG1.3f heavy constant, common CL; expression supernatant; also called Sup 54
B10: humanized Y1238 hz52 (hz-HC11 / hz-LC2), IgG1.3f (antibody, V domains shown)
VH: B6 VH with A40R, T74K, I76S, Y95F
VL: B6 VL with G66R
notes: IgG1.3f heavy constant, common CL; expression supernatant; also called Sup 52
B11: humanized Y1238 hz55 (hz-HC11 / hz-LC5), IgG1.3f (antibody, V domains shown)
VH: B6 VH with A40R, T74K, I76S, Y95F
VL: B6 VL with K42Q, G66R, T85V
notes: IgG1.3f heavy constant, common CL; expression supernatant; also called Sup 55
B12: humanized Y1238 hz53 (hz-HC11 / hz-LC3), IgG1.3f (antibody, V domains shown)
VH: B6 VH with A40R, T74K, I76S, Y95F
VL: B6 VL with K42Q, A43S, G66R, T85V
notes: IgG1.3f heavy constant, common CL; expression supernatant; also called Sup 53
B13: humanized Y1238 hz51 (hz-HC11 / hz-LC1), IgG1.3f (antibody, V domains shown)
VH: B6 VH with A40R, T74K, I76S, Y95F
VL: B6 VL
notes: IgG1.3f heavy constant, common CL; expression supernatant; also called Sup 51
B14: 5F11-45-IgG1.3f (antibody)
heavy: QVQLVQSGAEVKKPGSSVKVSCKASGYTFTDLSMHWVRQAPGQGLEWMGYITPSSGYTAYNQKFKGKTTLTADKSTSTAYMELSSLRSEDTAVYYCARLILQRGAYWGQGTLVTVSSASTKGPSVFPLAPSSKSTSGGTAALGCLVKDYFPEPVTVSWNSGALTSGVHTFPAVLQSSGLYSLSSVVTVPSSSLGTQTYICNVNHKPSNTKVDKRVEPKSCDKTHTCPPCPAPEAEGAPSVFLFPPKPKDTLMISRTPEVTCVVVDVSHEDPEVKFNWYVDGVEVHNAKTKPREEQYNSTYRVVSVLTVLHQDWLNGKEYKCKVSNKALPAPIEKTISKAKGQPREPQVYTLPPSREEMTKNQVSLTCLVKGFYPSDIAVEWESNGQPENNYKTTPPVLDSDGSFFLYSKLTVDKSRWQQGNVFSCSVMHEALHNHYTQKSLSLSPGK
light: DIVLTQSPDSLAVSLGERATINCRASKNVDSYGNSFMHWYQQKPGQPPKLLIYRASNLESGVPDRFSGSGSGTDFTLTISSLQAEDVAVYYCQQSNEDPLTFGQGTKLEIKRTVAAPSVFIFPPSDEQLKSGTASVVCLLNNFYPREAKVQWKVDNALQSGNSQESVTEQDSKDSTYSLSSTLTLSKADYEKHKVYACEVTHQGLSSPVTKSFNRGEC

Numbering of substitutions follows the chain as printed. “And” between values parts separate entries of the source, which are not always exact repeats. Equal entries are not always repeated.

human CD40 on primary human cells (tonsillar B cells, immature dendritic cells), sequence (P25942 21-277 limits assumed): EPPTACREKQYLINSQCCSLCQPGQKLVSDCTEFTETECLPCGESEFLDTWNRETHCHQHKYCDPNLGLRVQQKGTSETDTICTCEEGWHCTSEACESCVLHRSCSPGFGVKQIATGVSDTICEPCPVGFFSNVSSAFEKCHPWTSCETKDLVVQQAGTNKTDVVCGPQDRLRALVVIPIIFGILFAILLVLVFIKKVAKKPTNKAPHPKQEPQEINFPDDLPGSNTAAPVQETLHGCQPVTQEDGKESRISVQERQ

One experiment concerns the target human CD40 on primary human cells (tonsillar B cells, immature dendritic cells) (human, UniProt P25942 21-277). In words: cell-based or functional assay.
For the molecule B1, the “IC50 for inhibition of proliferation of B cells, CD40L Trimer” value (shortened to “IC50 for inhibition … CD40L Trimer”) worked out at 3.4 ng/mL and the “IC50 for inhibition of proliferation of B cells, CHO CD40L” value (from here on “IC50 for inhibition … CHO CD40L”) was determined as 19.9 ng/mL.
Turning to B2, the “IC50 for inhibition … CD40L Trimer” value stood at 2.9 ng/mL and the “IC50 for inhibition … CHO CD40L” value amounted to 20 ng/mL.
As to B3, the “IC50 for inhibition … CD40L Trimer” value is 2.7 ng/mL and the “IC50 for inhibition … CHO CD40L” value turned out to be 21 ng/mL.
For the molecule B4, the “IC50 for inhibition … CD40L Trimer” value turned out to be 7.4 ng/mL.

In another experiment the target is T1, human-CD40 monomer (human, UniProt P25942 21-193, limits assumed).
T1 construct: also called hCD40-monomer; human-CD40-monomer protein
T1 sequence (P25942 21-193 limits assumed): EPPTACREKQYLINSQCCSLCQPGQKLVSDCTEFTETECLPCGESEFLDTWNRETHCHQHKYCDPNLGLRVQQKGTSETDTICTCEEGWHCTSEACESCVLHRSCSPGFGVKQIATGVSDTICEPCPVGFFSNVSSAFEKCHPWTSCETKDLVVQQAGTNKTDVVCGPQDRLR
Briefly: SPR, Ab captured on protein A, CD40 monomer analyte. As to the method: These chimeric antibodies were tested for CD40 and FcgR binding by SPR, as well as for iDC activation.
On the technique in general: Surface plasmon resonance follows binding to a sensor surface in real time, without labels.
Take B5: the Kd (commonly the free concentration of one partner at which half of the binding sites on the other are occupied at equilibrium, for simple one-to-one binding) worked out at 2.1 nM; the koff (as a rule, the rate constant with which the complex falls apart) is 0.00021 s⁻¹; the on-rate (kon) (commonly the rate constant with which the complex forms) was 100000 M⁻¹ s⁻¹.

The target in another experiment is T1, human-CD40 monomer. Briefly: SPR full kinetics, Ab on protein A. As to the method: The VH sequences were formatted in the context of an IgG1.3f isotype. The Vκ sequences were formatted as a full light chain with a common CL sequence. All 55 combinations of these humanized HC and LC constructs, as well as the chimeric Y1238 molecule were expressed as 3 ml supernatants for binding analysis by SPR. […] All antibodies, except for those containing hz-HC3, captured at high levels (>300 RU) using a 100-fold dilution of the expression supernatant, indicating a high antibody titer in the supernatant except for the hz-HC3 samples. The kinetic data for the two concentrations of hCD40-monomer were fit to a 1:1 Langmuir model, to yield estimates of the kinetic and affinity values for these interactions, and for comparison of the different molecules. […] Also, for a given heavy chain, the antibodies with light chains hz-LC1 or hz-LC2 had higher CD40 affinity than those with hz-LC3, hz-LC4 or hz-LC5.
Consider B6, for which the dissociation constant (Kd) is 3 nM, the dissociation rate constant (koff) worked out at 0.00019 s⁻¹ and the on-rate (kon) came out at 65000 M⁻¹ s⁻¹.
As for B7, the Kd was determined as 2.6 nM, the koff was 0.00022 s⁻¹ and the kon was 86000 M⁻¹ s⁻¹.
Consider B8, for which the Kd came to 3.2 nM, the off-rate constant (koff) was 0.00027 s⁻¹ and the kon was found to be 83000 M⁻¹ s⁻¹.

The target of the next experiment is T1, human-CD40 monomer. Briefly: SPR 2 pt screen, Ab on protein A. An outline of the steps: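 Antibodies as IgG1.3f supernatants (100-fold diluted) or purified chimeric IgG1, captured on a protein A chip; hCD40 monomer flowed over at 200 and 1000 nM by SPR. Kinetic and affinity values from a 1:1 Langmuir fit.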
Consider B6, for which the dissociation constant Kd is 4.2 nM, the off-rate (koff) was found to be 0.0002 s⁻¹ and the kon was determined as 48000 M⁻¹ s⁻¹.
With B9, the dissociation constant (Kd) worked out at 15 nM, the koff came to 0.00056 s⁻¹ and the kon worked out at 38000 M⁻¹ s⁻¹.
The matching figures for B10: 6.5 nM, 0.00023 s⁻¹ and 35000 M⁻¹ s⁻¹.
With B11, the Kd was 15 nM, the koff was determined as 0.00056 s⁻¹ and the kon was 37000 M⁻¹ s⁻¹.
On to B12, for which the Kd amounted to 18 nM, the off-rate constant (koff) stood at 0.00067 s⁻¹ and the on-rate constant (kon) was 37000 M⁻¹ s⁻¹.
On to B13, for which the Kd was determined as 6.7 nM, the koff stood at 0.00025 s⁻¹ and the kon amounted to 37000 M⁻¹ s⁻¹.
On to B7, for which the Kd was determined as 5.6 nM, the koff was determined as 0.00032 s⁻¹ and the kon is 57000 M⁻¹ s⁻¹.
For B8, the Kd was 6.7 nM and 6.9 nM and 8.6 nM; the koff was 0.00038 s⁻¹ and 0.0004 s⁻¹ and 0.0005 s⁻¹; the association rate constant (kon) was 56000 M⁻¹ s⁻¹ and 59000 M⁻¹ s⁻¹ and 58000 M⁻¹ s⁻¹.

The next experiment deals with T1, human-CD40 monomer. Briefly: SPR, Ab captured on protein A, CD40 monomer analyte. This is another data set of the same source. An excerpt:
Based on the supernatant screening SPR data and bias towards constructs with fewer framework back-mutations, a subset of humanized Y1238 antibodies were selected for expression, purification, and further characterization. Two of these antibodies (i.e., Y1238-hz1 and Y1238-hz2) were formatted with P238K and N297A isotypes (i.e., SEQ ID NOS: 39, 40, 42, and 43 for heavy chains; see TABLE 15 for light chains) and tested for CD40 and FcgR binding by SPR. […] The Fc domain is underlined.
As to B2, binding was put at a Kd of 6 nM, the off-rate (koff) was found to be 0.0004 s⁻¹ and the kon is 66000 M⁻¹ s⁻¹.
For B3, in that order: 6.2 nM, 0.00043 s⁻¹ and 70000 M⁻¹ s⁻¹.
Molecule B4 displayed an equilibrium dissociation constant (Kd) of 35 nM, an off-rate constant (koff) of 0.0021 s⁻¹ and an on-rate (kon) of 61000 M⁻¹ s⁻¹.

Another experiment addresses T1, human-CD40 monomer. The description is as above. The source holds these as a separate data set.
B14: the dissociation constant Kd worked out at 1.6 nM, the koff stood at 0.00013 s⁻¹ and the on-rate constant (kon) was 82000 M⁻¹ s⁻¹.
